Measured values taken from US20160289280A1, “Fusion protein of recombinant ganoderma immunoregulatory protein and human serum albumin, preparation method thereof, and application thereof” (priority 2013, published 2016).
“And” between values parts separate entries of the source, which are not always exact repeats. Equal entries are not always repeated. Marks after values point to notes of the source that are not given here.

B1: rLZ-8-HSA: fusion protein of ganoderma immunoregulatory protein (LZ-8) and human serum albumin, linker GGGGSS, SEQ ID NO. 1 (protein)
chain: SDTALIFRLAWDVKKLSFDYTPNWGRGNPNNFIDTVTFPKVLTDKAYTYRVAVSGRNLGVKPSYAVESDGSGKVNFLEYNSGYGIADTNTIGVFVVDPDTNNDFIIAGWNGGGGSSMKWVTFISLLFLFSSAYSRGVFRRDAHKSEVAHRFKDLGEENFKALVLIAFAGYLGGCPFEDHVKLVNEVTEFAKTCVADESAENCDKSLHTLFGDKLCTVATLRETYGEMADCCAKGEPERNECFLGHKDDNPNLPRLVRPEVDVMCTAFHDNEETFLKKYLYEIARRHPYFYAPELLFFAKRYKAAFTECCGAADKAACLLPKLDELRDEGKASSAKGRLKCASLGKFGERAFKAWAVARLSGRFPKAEFAEVSKLVTDLTKVHTECCHGDLLECADDRADLAKYICENGDSISSKLKECCEKPLLEKSHCIAEVENDEMPADLPSLAADFVESKDVCKNYAEAKDVFLGMFLYEYARRHPDYSVVLLLRLAKTYETTLEKCCAAADPHECYAKVFDEFKPLVEEPGNLIKGNCELFEGLGEYKFGNALLVRYTKKVPGVSTPTLVEVSRNLGKVGSKCCKHPEAKRMPCAEDYLSVVLNGLCVLHEKTPVSDRVTKCCTESLVNRRPCFSALEVDETYVPKEFNAETFTFHADICTLSEKERGIKKGTALVELVKHKPKATKEGLKAVMDDFAAFVEKCCKADDKETCFAEEGKKLVAASGAALGL
modifications: rLZ-8-HSA sequence
B2: rLZ-8: recombinant ganoderma immunoregulatory protein which is not fused, comparator (protein, UniProt P14945 2-111, looked up)
Immunomodulatory protein Ling …: SDTALIFRLAWDVKKLSFDYTPNWGRGNPNNFIDTVTFPKVLTDKAYTYRVAVSGRNLGVKPSYAVESDGSQKVNFLEYNSGYGIADTNTIQVFVVDPDTNNDFIIAQWN

Legend:
platelets = test: treatment of mouse thrombocytopenia caused by cyclophosphamide, platelet count; assay type: in vivo; conditions: for platelets after: after cyclophosphamide, before treatment; for platelets before: baseline before cyclophosphamide
Procedure: Experimental medicine: preparing a 19.25 μg·kg^−1 and a 9.625 μg·kg^−1 dosage groups of the recombinant ganoderma immunoregulatory protein (rLZ-8) with sterile injection water, and 0.2 ml per mouse; and preparing a 19.25 μg·kg^−1 and a 9.625 μg·kg^−1 dosage groups (judging from the LZ-8) of the fusion protein rLZ-8-HSA of the recombinant ganoderma immunoregulatory protein.
Positive control medicine: thrombopoietin (THPO) from Shenyang 3SBio Inc., with a dosage of 770 μg·kg^−1/d and 0.2 ml per mouse.
Chemotherapy medicine: cyclophosphamide (Cy) from Jiangsu Hengrui Medicine Co., Ltd, whose batch number is 12112121, 200 mg/bottle; preparing into 100 mg·kg^−1, 0.2 ml per mouse with sterile injection water.
Platelet dilution: urea: 1.3 g; sodium citrate: 0.5 g; formaldehyde: 0.1 ml; adding distilled water to 100 ml for mixing, then filtering for further utilization.
Experimental method: dividing experimental animals into 5 groups, wherein each group comprises 10 mice with 5 males and 5 females; except for a normal control group (injected with normal saline having an equal volume), abdominally injecting the cyclophosphamide to the mice with a dosage of 100 mg·kg^−1, 0.2 ml per mouse per day, and lasting for three days; when a platelet quantity decreased to below 300×10^9/L, subcutaneously injecting the rLZ-8, the fusion protein rLZ-8-HAS (19.25 μg·kg^−1, 9.625 μg·kg^−1, 0.2 ml·per mouse per day) and the positive medicine (THPO 770 μg·kg^−1, 0.2 ml·per mouse per day) according to the above groups with corresponding dosages, and injecting the normal saline having the equal volume to the normal control group and a CP group; respectively sampling mouse tail vein blood 3 d, 7 d and 14 d after treatment, counting platelets with high power lens, wherein results thereof are listed in table 7.

[1] = test system: mouse transplanted tumor S180; test: subcutaneous inhibition of mouse transplanted tumor S180; assay type: in vivo; conditions: tail vein, 10 days
Procedure: In vivo experiment: experimental material: mice weighing 18-22 g from Laboratory Animal Center of Jilin University; Ehrlich ascites tumor cell strains are provided by a lab of the inventor; cytoxan (CTX) is from Jiangsu Hengrui Medicine Co., Ltd, whose batch number is 06101921; 5180 ascites tumor and soild tumor experimental groups respectively comprises a normal control group, a negative control group, a positive control group, an rLZ-8 low-dosage group (0.25 mg·kg^−1), an rLZ-8 middle-dosage group (0.5 mg·kg^−1), an rLZ-8 high-dosage group (1 mg·kg^−1), an rLZ-8-HSA low-dosage group (0.25 mg·kg^−1), an rLZ-8-HSA middle-dosage group (0.5 mg·kg^−1), and an rLZ-8-HSA high-dosage group (1 mg·kg^−1), wherein dosages of the rLZ-8-HSA groups are judged from LZ-8 dosage, wherein each group comprises 10 mice.
tumor inhibition rate (%)=(average tumor weight of control groups−average tumor weight of experimental groups)/average tumor weight of control groups×100%.

mouse spleen cells = test: promotion of mouse spleen cell proliferation, WST-1 method; assay type: cell-based; conditions: for OD450, promotion of cell proliferation: 24 h, x ± s, n = 9
Procedure: Testing effects of the fusion proteins on mouse spleen cell proliferation by a WST-1 method, which illustrates strength of biological activity, wherein according to the present invention, BALB/c female mice are used, whose weight is controlled at 20-22 g; executing the mice by stretching necks thereof, taking out spleens under a sterile condition, and putting into a plate with 5 ml DMEM comprising 10% calf serum; cracking the spleens with tweezers, filtering tissue suspension with gauze for removing tissue blocks, and preparing cell suspension of spleen cells; adding 100 μl the tissue suspension into 900 μl 2% glacial acetic acid for counting with a microscope; adjusting a cell concentration to 5×10^6/ml with DMEM comprising 2% calf serum; respectively preparing the fusion proteins and the rLZ-8 with same molar concentration gradient, wherein there are 3 gradient concentrations, each concentration occupies 9 wells with 100 μl per well; adding tissue suspension with a concentration of 5×10^6/ml with 100 μl per well; shaking for evenly mixing, and then putting into a 37° C., 5% CO2 incubation device to incubate for 24 h; after incubation, adding WST-1 with 20 μl per well; putting into the 37° C., 5% CO2 incubation device to incubate for 3 h, then testing OD450 (with a BIO-RAD); wherein results are listed in table 1.

leukocytes = test: treatment of rat models with leucopenia caused by cyclophosphamide, leukocyte count; assay type: in vivo; conditions: for leukocyte number before: baseline after CP modeling, before treatment
Source text: Utilizing Wistar rats in the experiments, wherein 18 rats weighing about 100 g are utilized. […] The experiment has an rLZ-8 low-dosage group, an rLZ-8 middle-dosage group, an rLZ-8 high-dosage group, an rLZ-8-HSA low-dosage group, an rLZ-8-HSA middle-dosage group, an rLZ-8-HSA high-dosage group, and a positive medicine control group (utilizing the […]®). […] On the third day, the blood is sampled from the tail vein, and the leukocytes are counted by a cytoanalyzer. After successful modeling, the rats of each the group are respectively treated with the rLZ-8, the three kinds of the fusion proteins, or the positive medicine (the […]®) with the corresponding dosage, and the equal sterile saline is given to the rats of the normal control and a CP group. The blood is sampled from the tail vein on the first, third and seventh treatment days, and the leukocytes are counted by the cytoanalyzer. Medicine efficacy is analyzed according to a number difference of the leukocyte between before and after the treatment.

[2] = 9.625 μg·kg^−1 (LZ-8) subcutaneously per day
[3] = 19.25 μg·kg^−1 (LZ-8) subcutaneously per day
[4] = low-dosage 0.25 mg·kg^−1 (LZ-8)
[5] = middle-dosage 0.5 mg·kg^−1 (LZ-8)
[6] = high-dosage 60 μg/kg (LZ-8 dosage)
[7] = low-dosage 15 μg/kg (LZ-8 dosage)
[8] = middle-dosage 30 μg/kg (LZ-8 dosage)

Row | Molecule | platelets 3rd day (platelets; [2]) | platelets 7th day (platelets; [2]) | platelets 14th day (platelets; [2]) | platelets after (platelets; 9.625 μg·kg^−1 group) | platelets before (platelets; 9.625 μg·kg^−1 group) | platelets 3rd day (platelets; [3]) | platelets 7th day (platelets; [3]) | platelets 14th day (platelets; [3]) | platelets after (platelets; 19.25 μg·kg^−1 group) | platelets before (platelets; 19.25 μg·kg^−1 group) | Inhibition rate ([1]; high-dosage 1 mg·kg^−1 (LZ-8)) | tumor weight ([1]; high-dosage 1 mg·kg^−1 (LZ-8)) [g] | Inhibition rate [1, 4] | tumor weight [1, 4] [g] | Inhibition rate [1, 5] | tumor weight [1, 5] [g] | OD450, promotion of cell proliferation (mouse spleen cells; protein 5.0 × 10^−9 mol/L) | OD450, promotion of cell proliferation (mouse spleen cells; protein 10.0 × 10^−9 mol/L) | OD450, promotion of cell proliferation (mouse spleen cells; protein 15.0 × 10^−9 mol/L) | leukocyte number on the first treatment day (leukocytes; [6]) [L⁻¹] | further results
1 | B1 | 624 ± 0.43* *10^9/L | 697 ± 0.43* *10^9/L | 929 ± 0.61** *10^9/L | 261 ± 0.52 *10^9/L | 843 ± 0.65 *10^9/L | 760 ± 0.38* *10^9/L | 978 ± 0.67* *10^9/L | 1035 ± 0.78** *10^9/L | 246 ± 0.36 *10^9/L | 852 ± 0.82 *10^9/L | 29.3% | 0.21 ± 0.08 | 27.7% | 0.73 ± 0.03 | 56.4% | 0.44 ± 0.05 | 0.936 ± 0.31 | 1.680 ± 0.38 | 2.373 ± 0.35 | 8.4e+09 | platelet recovery compared with the CP group (platelets; rLZ-8-HSA groups, p<0.05): returned to normal at the third day; promotion of spleen cell proliferation compared with rLZ-8 (mouse spleen cells; same protein concentration): better than the rLZ-8; leukocyte number relative to the rLZ-8 groups with the same dosage (leukocytes; first treatment day): about 2 times; leukocyte number on the seventh treatment day (leukocytes; [6]): 1.55e+10 L⁻¹; leukocyte number on the third treatment day (leukocytes; [6]): 1.44e+10 L⁻¹; leukocyte number before (leukocytes; [6]): 3.33e+09 L⁻¹; leukocyte number on the first treatment day (leukocytes; [7]): 8.5e+09 L⁻¹; leukocyte number on the seventh treatment day (leukocytes; [7]): 1.32e+10 L⁻¹; leukocyte number on the third treatment day (leukocytes; [7]): 1.08e+10 L⁻¹; leukocyte number before (leukocytes; [7]): 3.11e+09 L⁻¹; leukocyte number on the first treatment day (leukocytes; [8]): 9.2e+09 L⁻¹; leukocyte number on the seventh treatment day (leukocytes; [8]): 1.34e+10 L⁻¹; leukocyte number on the third treatment day (leukocytes; [8]): 1.198e+10 L⁻¹; leukocyte number before (leukocytes; [8]): 2.89e+09 L⁻¹
2 | B2 | 483 ± 0.45 *10^9/L | 585 ± 0.78 *10^9/L | 898 ± 0.61* *10^9/L | 201 ± 0.41 *10^9/L | 839 ± 0.40 *10^9/L | 501 ± 0.48 *10^9/L | 680 ± 0.28 *10^9/L | 1021 ± 0.31** *10^9/L | 226 ± 0.78 *10^9/L | 946 ± 0.45 *10^9/L | 45.5% and 43.5% | 0.57 ± 0.03 | 16.8% and 17.8% | 0.83 ± 0.03 | 25.7% and 26.7% | 0.74 ± 0.02 | 0.739 ± 0.23 | 1.197 ± 0.31 | 1.567 ± 0.27 | 5.4e+09 | leukocyte number on the seventh treatment day (leukocytes; [6]): 1.45e+10 L⁻¹; leukocyte number on the third treatment day (leukocytes; [6]): 9.6e+09 L⁻¹; leukocyte number before (leukocytes; [6]): 4.09e+09 L⁻¹; leukocyte number on the first treatment day (leukocytes; [7]): 4.6e+09 L⁻¹; leukocyte number on the seventh treatment day (leukocytes; [7]): 1.12e+10 L⁻¹; leukocyte number on the third treatment day (leukocytes; [7]): 9.3e+09 L⁻¹; leukocyte number before (leukocytes; [7]): 3.71e+09 L⁻¹; leukocyte number on the first treatment day (leukocytes; [8]): 5.1e+09 L⁻¹; leukocyte number on the seventh treatment day (leukocytes; [8]): 1.278e+10 L⁻¹; leukocyte number on the third treatment day (leukocytes; [8]): 9.7e+09 L⁻¹; leukocyte number before (leukocytes; [8]): 3.12e+09 L⁻¹
